Source: article PMC10397247
Values belong to the binder of their own block, whether it stands above or below them.

Experiments:
Core_NNNN-es_KEKE = target: T1, Core_NNNN-es_KEKE; test: two-hybrid library CCmax; details: mean of both orientations;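 note: natural log of median RNA to DNA barcode read ratio; higher means stronger binding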
T1 chain: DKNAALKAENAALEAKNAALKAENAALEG

Core_INNN-es_KKKE = target: T2, Core_INNN-es_KKKE; test: two-hybrid library CCmax; details: mean of both orientations;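 note: natural log of median RNA to DNA barcode read ratio; higher means stronger binding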
T2 chain: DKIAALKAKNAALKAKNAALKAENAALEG

Core_INII-es_KEEE = target: T3, Core_INII-es_KEEE; test: two-hybrid library CCmax; details: mean of both orientations;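 note: natural log of median RNA to DNA barcode read ratio; higher means stronger binding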
T3 chain: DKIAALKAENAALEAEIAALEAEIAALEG

4H1046-bA = target: T4, 4H1046-bA; test: two-hybrid library CCNG1; details: mean of both orientations;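 note: natural log of median RNA to DNA barcode read ratio; higher means stronger binding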
T4 chain: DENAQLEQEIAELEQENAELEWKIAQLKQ

4H1072-bA = target: T5, 4H1072-bA; test: two-hybrid library CCNG1;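 note: natural log of median RNA to DNA barcode read ratio; higher means stronger binding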
T5 chain: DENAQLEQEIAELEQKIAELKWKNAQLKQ

4H2568-bA = target: T6, 4H2568-bA; test: two-hybrid library CCNG1;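 note: natural log of median RNA to DNA barcode read ratio; higher means stronger binding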
T6 chain: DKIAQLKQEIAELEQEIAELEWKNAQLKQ

4H2619-bA = target: T7, 4H2619-bA; test: two-hybrid library CCNG1
T7 chain: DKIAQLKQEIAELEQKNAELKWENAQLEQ

4H2745-bA = target: T8, 4H2745-bA; test: two-hybrid library CCNG1
T8 chain: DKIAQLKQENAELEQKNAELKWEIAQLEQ

4H344-bA = target: T9, 4H344-bA; test: two-hybrid library CCNG1
T9 chain: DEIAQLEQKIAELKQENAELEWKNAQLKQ

4H363-bA = target: T10, 4H363-bA; test: two-hybrid library CCNG1
T10 chain: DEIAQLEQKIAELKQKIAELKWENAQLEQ

4H3907-bA = target: T11, 4H3907-bA; test: two-hybrid library CCNG1
T11 chain: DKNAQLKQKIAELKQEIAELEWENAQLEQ

4H3961-bA = target: T12, 4H3961-bA; test: two-hybrid library CCNG1; details: mean of both orientations
T12 chain: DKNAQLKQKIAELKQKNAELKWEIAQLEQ

4H470-bA = target: T13, 4H470-bA; test: two-hybrid library CCNG1
T13 chain: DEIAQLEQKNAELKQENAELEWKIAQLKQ

P4SC1 [1] = target: T14, P4SC1; test: two-hybrid library CCNG1
T14 chain: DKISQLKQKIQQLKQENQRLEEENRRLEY

P4SC1 [2] = target: T14, P4SC1; test: two-hybrid library CCmax; details: mean of both orientations
Core_INNN-es_KKEK = target: T15, Core_INNN-es_KKEK; test: two-hybrid library CCmax; details: mean of both orientations
T15 chain: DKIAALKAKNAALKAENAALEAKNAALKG

Core_NNIN-es_KKEE = target: T16, Core_NNIN-es_KKEE; test: two-hybrid library CCmax; details: mean of both orientations
T16 chain: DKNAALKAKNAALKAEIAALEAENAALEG

Core_NNNN-es_KKEE = target: T17, Core_NNNN-es_KKEE; test: two-hybrid library CCmax; details: mean of both orientations
T17 chain: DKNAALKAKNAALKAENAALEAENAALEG

Core_INNI-es_KKEK = target: T18, Core_INNI-es_KKEK; test: two-hybrid library CCmax; details: mean of both orientations
T18 chain: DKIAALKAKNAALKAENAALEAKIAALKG

interaction score (Core_NNNN-es_KEKE): -0.668
Binder: DENAALEAKNAALKAENAALEAKNAALKG [Core_NNNN-es_EKEK]

interaction score (Core_INNN-es_KKKE): 2.01
Binder: DEIAALEAENAALEAENAALEAKNAALKG [Core_INNN-es_EEEK]

interaction score (Core_INII-es_KEEE): 2.08
Binder: DEIAALEAKNAALKAKIAALKAKIAALKG [Core_INII-es_EKKK]

interaction score (4H1046-bA): -0.316 | interaction score (4H1072-bA): -0.435 | interaction score (4H2568-bA): -1.17 | interaction score (4H2619-bA): -0.535 | interaction score (4H2745-bA): 0.103 | interaction score (4H344-bA): -0.743 | interaction score (4H363-bA): 0.269 | interaction score (4H3907-bA): -0.392 | interaction score (4H3961-bA): 1.98 | interaction score (4H470-bA): 0.412
Binder: DENAQLEQEIAELEQENAELEWKIAQLKQ [4H1046-bA]

interaction score (P4SC1 [1]): 2.22 | interaction score (P4SC1 [2]): 1.43
Binder: DEIQQLEEEISQLEYKNYALKAKNEELKR [P3SC1]

interaction score (Core_INNN-es_KKEK): 1.84
Binder: DEIAALEAENAALEAKNAALKAENAALEG [Core_INNN-es_EEKE]

interaction score (Core_NNIN-es_KKEE): 1.83
Binder: DENAALEAENAALEAKIAALKAKNAALKG [Core_NNIN-es_EEKK]

interaction score (Core_NNNN-es_KKEE): 0.234
Binder: DENAALEAENAALEAKNAALKAKNAALKG [Core_NNNN-es_EEKK]

interaction score (Core_INNI-es_KKEK): 2.03
Binder: DEIAALEAENAALEAKNAALKAEIAALEG [Core_INNI-es_EEKE]
